Assay results published in patent US8158376B2, “Bisubstrate fluorescent probe binding to protein kinases” (University of Tartu, priority 2006, dated 2012).
Like-named read-outs stand apart in the source and are kept apart here.

Columns and labels:
Assay in all cases: Kinase selectivity panel
Assay type in all cases: biochemical
[1] = target: NEK6 (Homo sapiens, UniProt Q9HC98); details: read-out: residual activity (%) NEK6
Procedure: (§1) The panel of kinases included all 52 kinases available for testing.
(§2) The assay of protein kinases was performed at 30° C. as described previously [Davies et al., Biochem. J. 351 (2000) 95; Murray et al., Biochem. J. 384 (2004) 477].

[2] = target: T1, IKKb (Homo sapiens, UniProt O14920); details: read-out: residual activity (%) IKKb
T1 sequence (O14920 1-756): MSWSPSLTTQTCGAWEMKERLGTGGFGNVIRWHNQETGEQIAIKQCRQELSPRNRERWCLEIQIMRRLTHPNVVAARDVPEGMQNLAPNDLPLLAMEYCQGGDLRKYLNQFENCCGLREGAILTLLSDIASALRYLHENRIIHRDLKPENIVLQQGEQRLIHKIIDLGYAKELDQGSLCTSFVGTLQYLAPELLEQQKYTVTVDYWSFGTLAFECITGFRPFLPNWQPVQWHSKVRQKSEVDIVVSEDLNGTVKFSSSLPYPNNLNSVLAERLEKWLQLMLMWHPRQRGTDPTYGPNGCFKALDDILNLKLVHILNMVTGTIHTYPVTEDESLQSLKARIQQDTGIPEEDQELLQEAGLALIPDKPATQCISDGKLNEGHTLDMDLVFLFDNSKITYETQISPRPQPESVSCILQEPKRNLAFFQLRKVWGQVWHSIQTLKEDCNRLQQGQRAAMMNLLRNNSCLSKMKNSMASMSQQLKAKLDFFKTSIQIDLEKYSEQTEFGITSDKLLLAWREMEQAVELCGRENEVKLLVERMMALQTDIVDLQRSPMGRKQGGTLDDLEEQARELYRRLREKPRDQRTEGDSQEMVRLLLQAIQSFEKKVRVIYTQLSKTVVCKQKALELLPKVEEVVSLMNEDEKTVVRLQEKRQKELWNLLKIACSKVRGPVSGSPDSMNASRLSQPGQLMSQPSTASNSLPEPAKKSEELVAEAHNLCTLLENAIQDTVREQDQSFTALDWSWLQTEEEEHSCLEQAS
Procedure: as §1, §2

[3] = target: DYRK1a (Homo sapiens, UniProt Q13627); details: read-out: residual activity (%) DYRK1a
Procedure: as §1, §2

[4] = target: JNK3 (Homo sapiens, UniProt P53779); details: read-out: residual activity (%) JNK3
Chain of JNK3 (P53779 whole entry, species assumed): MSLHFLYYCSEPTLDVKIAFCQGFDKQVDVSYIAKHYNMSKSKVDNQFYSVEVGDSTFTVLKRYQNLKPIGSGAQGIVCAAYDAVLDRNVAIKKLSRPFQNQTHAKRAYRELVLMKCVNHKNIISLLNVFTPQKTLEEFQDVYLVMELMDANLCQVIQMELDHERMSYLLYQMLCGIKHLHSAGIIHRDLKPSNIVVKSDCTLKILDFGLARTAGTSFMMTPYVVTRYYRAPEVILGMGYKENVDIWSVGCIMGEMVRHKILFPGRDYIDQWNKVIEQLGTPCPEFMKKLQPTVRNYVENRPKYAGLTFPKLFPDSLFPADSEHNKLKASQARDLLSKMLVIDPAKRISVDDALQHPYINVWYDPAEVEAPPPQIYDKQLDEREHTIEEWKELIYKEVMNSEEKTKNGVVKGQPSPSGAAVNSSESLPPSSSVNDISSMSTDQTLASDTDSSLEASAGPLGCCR
Procedure: as §1, §2

[5] = target: T2, NEK2a (Homo sapiens, UniProt P51955); details: read-out: residual activity (%) NEK2a
T2 sequence (P51955 1-445): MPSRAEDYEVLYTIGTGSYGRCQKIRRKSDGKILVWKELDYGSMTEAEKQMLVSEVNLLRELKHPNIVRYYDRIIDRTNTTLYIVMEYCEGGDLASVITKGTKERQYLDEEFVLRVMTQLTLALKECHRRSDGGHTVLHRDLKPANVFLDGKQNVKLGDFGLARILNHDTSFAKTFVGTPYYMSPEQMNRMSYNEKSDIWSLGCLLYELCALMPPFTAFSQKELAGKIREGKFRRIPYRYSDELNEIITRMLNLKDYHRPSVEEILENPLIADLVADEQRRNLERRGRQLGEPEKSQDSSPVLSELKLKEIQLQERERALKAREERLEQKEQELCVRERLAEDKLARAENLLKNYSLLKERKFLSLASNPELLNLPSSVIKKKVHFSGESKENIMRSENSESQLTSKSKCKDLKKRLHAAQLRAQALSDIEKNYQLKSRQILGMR
Procedure: as §1, §2

[6] = target: PIM2 (Homo sapiens, UniProt Q9P1W9); details: read-out: residual activity (%) PIM2
Chain of PIM2 (Q9P1W9 whole entry, species assumed): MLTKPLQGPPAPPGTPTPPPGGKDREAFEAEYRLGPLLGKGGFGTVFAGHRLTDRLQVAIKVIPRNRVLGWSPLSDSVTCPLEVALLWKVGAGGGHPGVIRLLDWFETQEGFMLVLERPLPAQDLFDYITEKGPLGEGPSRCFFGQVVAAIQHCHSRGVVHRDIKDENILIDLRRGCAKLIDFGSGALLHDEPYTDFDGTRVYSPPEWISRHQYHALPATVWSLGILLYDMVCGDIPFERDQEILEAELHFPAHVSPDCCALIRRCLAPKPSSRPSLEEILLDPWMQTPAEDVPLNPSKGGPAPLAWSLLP
Procedure: as §1, §2

[7] = target: smMLCK (Homo sapiens, UniProt Q15746); details: read-out: residual activity (%) smMLCK
Procedure: as §1, §2

[8] = target: T3, MST2 (Homo sapiens, UniProt Q13188); details: read-out: residual activity (%) MST2
T3 sequence (Q13188 1-491): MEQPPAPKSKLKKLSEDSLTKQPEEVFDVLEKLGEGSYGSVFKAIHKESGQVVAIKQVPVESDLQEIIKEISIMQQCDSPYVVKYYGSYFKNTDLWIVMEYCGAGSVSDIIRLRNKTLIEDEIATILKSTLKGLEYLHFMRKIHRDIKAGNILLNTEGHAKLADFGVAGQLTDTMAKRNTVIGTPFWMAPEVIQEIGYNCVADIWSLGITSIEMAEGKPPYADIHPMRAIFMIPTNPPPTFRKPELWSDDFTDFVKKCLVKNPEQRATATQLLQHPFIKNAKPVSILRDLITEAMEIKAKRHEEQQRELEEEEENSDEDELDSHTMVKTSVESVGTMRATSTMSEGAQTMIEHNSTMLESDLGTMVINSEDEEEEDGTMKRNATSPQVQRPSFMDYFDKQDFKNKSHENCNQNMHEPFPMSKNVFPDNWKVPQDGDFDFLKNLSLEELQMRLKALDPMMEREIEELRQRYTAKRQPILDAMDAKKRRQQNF
Procedure: as §1, §2

[9] = target: T4, ERK8 (Homo sapiens, UniProt Q8TD08); details: read-out: residual activity (%) ERK8
T4 sequence (Q8TD08 1-544): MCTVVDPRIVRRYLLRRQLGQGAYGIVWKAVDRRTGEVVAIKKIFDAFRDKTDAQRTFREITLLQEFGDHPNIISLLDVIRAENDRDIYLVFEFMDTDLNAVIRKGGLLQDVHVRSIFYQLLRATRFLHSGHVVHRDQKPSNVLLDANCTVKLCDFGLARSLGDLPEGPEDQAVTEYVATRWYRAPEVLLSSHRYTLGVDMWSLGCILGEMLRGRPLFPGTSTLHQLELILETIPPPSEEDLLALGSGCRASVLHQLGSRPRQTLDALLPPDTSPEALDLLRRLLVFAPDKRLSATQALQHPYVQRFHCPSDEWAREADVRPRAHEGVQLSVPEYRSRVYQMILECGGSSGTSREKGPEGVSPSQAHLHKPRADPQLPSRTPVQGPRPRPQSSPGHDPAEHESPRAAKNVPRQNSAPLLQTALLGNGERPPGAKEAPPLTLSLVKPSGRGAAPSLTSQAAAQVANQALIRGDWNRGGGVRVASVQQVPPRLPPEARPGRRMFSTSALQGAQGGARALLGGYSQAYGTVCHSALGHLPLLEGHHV
Procedure: as §1, §2

Chain of NEK6 (Q9HC98 whole entry, species assumed): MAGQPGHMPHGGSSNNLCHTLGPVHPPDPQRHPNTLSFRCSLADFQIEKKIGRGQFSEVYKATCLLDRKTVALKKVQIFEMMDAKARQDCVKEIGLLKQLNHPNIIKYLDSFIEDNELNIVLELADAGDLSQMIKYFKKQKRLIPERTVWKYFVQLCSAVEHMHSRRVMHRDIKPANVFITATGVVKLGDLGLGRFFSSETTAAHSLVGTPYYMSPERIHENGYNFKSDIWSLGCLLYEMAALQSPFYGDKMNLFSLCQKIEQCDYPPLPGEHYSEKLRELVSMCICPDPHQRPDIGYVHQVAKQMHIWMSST

SMILES	remaining activity at 1 µM [1] [%]	remaining activity at 1 µM [2] [%]	remaining activity at 1 µM [3] [%]	remaining activity at 1 µM [4] [%]	remaining activity at 1 µM [5] [%]	remaining activity at 1 µM [6] [%]	remaining activity at 1 µM [7] [%]	remaining activity at 1 µM [8] [%]	remaining activity at 1 µM [9] [%]	remaining activity at 1 µM ([1]; inhibitor 1 μM, ATP 50 μM) [%]	remaining activity at 1 µM ([2]; inhibitor 1 μM, ATP 5 μM) [%]	remaining activity at 1 µM ([3]; inhibitor 1 μM, ATP 50 μM) [%]	remaining activity at 1 µM ([4]; inhibitor 1 μM, ATP 50 μM) [%]	remaining activity at 1 µM ([5]; inhibitor 1 μM, ATP 50 μM) [%]	remaining activity at 1 µM ([6]; inhibitor 1 μM, ATP 5 μM) [%]	remaining activity at 1 µM ([7]; inhibitor 1 μM, ATP 50 μM) [%]	remaining activity at 1 µM ([8]; inhibitor 1 μM, ATP 20 μM) [%]	remaining activity at 1 µM ([9]; inhibitor 1 μM, ATP 5 μM) [%]
N=C(N)NCCC[C@@H](NC(=O)[C@@H](CCCNC(=N)N)NC(=O)[C@@H](CCCNC(=N)N)NC(=O)[C@@H](CCCNC(=N)N)NC(=O)[C@@H](CCCNC(=N)N)NC(=O)[C@@H](CCCNC(=N)N)NC(=O)CCCCCNC(=O)[C@H]1O[C@@H](n2cnc3c(N)ncnc32)[C@H](O)[C@@H]1O)C(N)=O [Compound 5, AdcAhx(D-Arg)6-NH2]	94	94	72	91	82	38	72	77	50									
N=C(N)NCCC[C@@H](NC(=O)[C@@H](CCCNC(=N)N)NC(=O)[C@@H](CCCNC(=N)N)NC(=O)[C@@H](CCCNC(=N)N)NC(=O)[C@@H](CCCNC(=N)N)NC(=O)[C@@H](CCCNC(=N)N)NC(=O)CCCCCNCCNS(=O)(=O)c1cccc2cnccc12)C(N)=O [Compound 26, H9-Hex(D-Arg)6-NH2]										100	87	69	92	98	< 10	90	24	52
